The target in this test is FcBP-encapsulin (Fc-binding peptide inserted encapsulin protein cage nanoparticle) (Thermotoga maritima) (UniProt Q9WZP2). The test is described as follows: SEC; elution of purified FcBP-encapsulin compared with encapsulin.

The values that follow come from PMC4552281.

On to “FcBP-encapsulin (Fc-binding peptide inserted encapsulin protein cage nanoparticle) (from UniProt Q9WZP2 1-138; Q9WZP2 139-265) (designed binder)”, for which the stoichiometry N is 60.

The stoichiometry N is the number of molecules, sites or subunits per partner or assembly.
